Assay results published in article PMC9243176, “Multifaceted regulation of the sumoylation of the Sgs1 DNA helicase” (The Journal of Biological Chemistry, 2022).
Blank lines part the entries; values can stand above or below the binder they belong to.

Tests used:
[1] = target: T1, Mms21;Smc5 (Saccharomyces cerevisiae;Saccharomyces …, UniProt P38632;Q08204 1-267;1-1093, |); assay: EMSA; 5-40 nM E3, 5 nM DNA; less pronounced than STR; 35 mM Tris-HCl pH 7.5, 1 mM DTT, 100 ug/ml BSA, 5 mM MgCl2, 130 mM KCl, 30 C, 10 min; native PAGE in TAE (6.5% STR and E3, 7% Esc2); details: protein: recombinant;recombinant; tags: ;; copies: 1;1; four-way Holliday junction of 4 strands
T1 sequence 1: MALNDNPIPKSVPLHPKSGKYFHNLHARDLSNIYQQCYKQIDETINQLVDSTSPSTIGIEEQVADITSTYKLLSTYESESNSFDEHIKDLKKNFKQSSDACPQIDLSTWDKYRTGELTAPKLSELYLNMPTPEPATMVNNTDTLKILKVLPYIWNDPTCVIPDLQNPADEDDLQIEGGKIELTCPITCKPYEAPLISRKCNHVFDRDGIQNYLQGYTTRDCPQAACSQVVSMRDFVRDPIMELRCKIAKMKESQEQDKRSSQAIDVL
T1 sequence 2: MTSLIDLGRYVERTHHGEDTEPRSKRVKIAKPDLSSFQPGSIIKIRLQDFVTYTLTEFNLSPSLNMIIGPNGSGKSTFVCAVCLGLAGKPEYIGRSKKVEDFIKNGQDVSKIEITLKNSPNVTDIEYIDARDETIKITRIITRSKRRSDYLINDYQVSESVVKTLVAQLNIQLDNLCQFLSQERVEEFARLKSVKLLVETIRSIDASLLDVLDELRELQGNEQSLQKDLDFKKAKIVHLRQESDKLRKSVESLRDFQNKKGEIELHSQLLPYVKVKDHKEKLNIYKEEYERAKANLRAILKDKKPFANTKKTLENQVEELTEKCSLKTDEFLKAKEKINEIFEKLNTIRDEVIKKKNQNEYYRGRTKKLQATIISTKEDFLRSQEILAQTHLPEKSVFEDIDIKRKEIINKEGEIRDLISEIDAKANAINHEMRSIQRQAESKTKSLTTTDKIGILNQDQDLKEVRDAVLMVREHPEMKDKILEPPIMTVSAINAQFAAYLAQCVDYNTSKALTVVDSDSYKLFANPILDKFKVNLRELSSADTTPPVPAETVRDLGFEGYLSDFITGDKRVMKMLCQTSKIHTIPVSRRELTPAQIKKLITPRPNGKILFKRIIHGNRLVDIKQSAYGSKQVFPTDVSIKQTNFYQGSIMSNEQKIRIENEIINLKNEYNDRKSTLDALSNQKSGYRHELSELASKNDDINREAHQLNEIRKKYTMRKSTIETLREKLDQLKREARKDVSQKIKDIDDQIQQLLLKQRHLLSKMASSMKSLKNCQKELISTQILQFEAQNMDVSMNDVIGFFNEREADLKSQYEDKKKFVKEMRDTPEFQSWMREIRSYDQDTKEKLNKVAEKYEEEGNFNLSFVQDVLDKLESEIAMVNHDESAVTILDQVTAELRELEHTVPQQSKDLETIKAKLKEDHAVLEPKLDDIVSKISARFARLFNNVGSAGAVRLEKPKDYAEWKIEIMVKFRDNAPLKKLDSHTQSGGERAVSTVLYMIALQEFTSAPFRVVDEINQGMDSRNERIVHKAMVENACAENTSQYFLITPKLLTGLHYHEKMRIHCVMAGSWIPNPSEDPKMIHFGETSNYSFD

[2] = target: T2, Esc2 (Saccharomyces cerevisiae, UniProt Q06340 1-456); assay: EMSA; 5-80 nM Esc2, 5 nM DNA; strong preference over dsDNA; 35 mM Tris-HCl pH 7.5, 1 mM DTT, 100 ug/ml BSA, 5 mM MgCl2, 130 mM KCl, 30 C, 10 min; native PAGE in TAE (6.5% STR and E3, 7% Esc2); details: protein: recombinant; four-way Holliday junction of 4 strands
T2 sequence: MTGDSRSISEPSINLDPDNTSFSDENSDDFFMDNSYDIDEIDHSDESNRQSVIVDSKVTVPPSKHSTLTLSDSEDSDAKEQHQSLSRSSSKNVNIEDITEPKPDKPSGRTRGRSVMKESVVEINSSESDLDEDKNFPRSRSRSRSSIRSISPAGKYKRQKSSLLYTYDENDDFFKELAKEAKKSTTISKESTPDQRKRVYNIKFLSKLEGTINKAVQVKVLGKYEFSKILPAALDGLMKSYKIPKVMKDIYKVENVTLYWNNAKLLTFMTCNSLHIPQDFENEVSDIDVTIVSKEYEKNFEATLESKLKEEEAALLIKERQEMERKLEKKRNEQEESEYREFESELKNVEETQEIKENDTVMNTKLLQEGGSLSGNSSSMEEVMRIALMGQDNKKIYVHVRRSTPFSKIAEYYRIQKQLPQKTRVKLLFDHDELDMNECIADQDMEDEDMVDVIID

[3] = target: T3, Esc2-5E (Saccharomyces cerevisiae, UniProt Q06340 1-456, K179E;K182E;K183E;K197E;R198E); assay: EMSA; 5-80 nM protein, 5 nM DNA; 35 mM Tris-HCl pH 7.5, 1 mM DTT, 100 ug/ml BSA, 5 mM MgCl2, 130 mM KCl, 30 C, 10 min; native PAGE in TAE (6.5% STR and E3, 7% Esc2); details: protein: recombinant
T3 sequence: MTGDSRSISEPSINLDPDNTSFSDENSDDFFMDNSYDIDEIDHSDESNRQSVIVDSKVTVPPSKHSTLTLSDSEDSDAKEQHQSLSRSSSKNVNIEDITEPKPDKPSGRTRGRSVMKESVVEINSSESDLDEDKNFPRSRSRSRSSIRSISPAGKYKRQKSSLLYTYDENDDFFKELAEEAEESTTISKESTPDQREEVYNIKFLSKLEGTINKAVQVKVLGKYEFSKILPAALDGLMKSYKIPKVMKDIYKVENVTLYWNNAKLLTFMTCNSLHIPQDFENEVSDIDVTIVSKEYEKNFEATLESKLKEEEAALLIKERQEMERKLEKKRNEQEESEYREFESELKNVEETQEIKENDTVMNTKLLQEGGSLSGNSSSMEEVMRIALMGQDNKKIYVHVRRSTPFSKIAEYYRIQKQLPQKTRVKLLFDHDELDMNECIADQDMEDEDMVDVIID

[4] = target: T4, Esc2-MRΔ (Saccharomyces cerevisiae, UniProt Q06340 1-456, del154-198); assay: as above; details: protein: recombinant
T4 sequence: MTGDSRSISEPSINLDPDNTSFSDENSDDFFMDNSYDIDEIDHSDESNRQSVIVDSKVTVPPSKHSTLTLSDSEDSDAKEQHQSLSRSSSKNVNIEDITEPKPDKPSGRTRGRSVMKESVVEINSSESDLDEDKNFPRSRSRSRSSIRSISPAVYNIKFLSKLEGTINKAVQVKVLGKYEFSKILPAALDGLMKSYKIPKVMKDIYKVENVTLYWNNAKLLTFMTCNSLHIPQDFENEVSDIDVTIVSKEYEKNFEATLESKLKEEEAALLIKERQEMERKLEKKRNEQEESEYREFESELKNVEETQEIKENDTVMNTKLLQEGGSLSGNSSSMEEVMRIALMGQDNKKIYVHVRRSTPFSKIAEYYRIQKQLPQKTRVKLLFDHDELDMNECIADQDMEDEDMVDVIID

[5] = target: T5, Sgs1;Top3;Rmi1 (Saccharomyces cerevisiae;Saccharomyces …, UniProt P35187;P13099;Q02685 1-1447;1-656;1-241, ||); assay: EMSA; 5-40 nM STR, 5 nM DNA; 35 mM Tris-HCl pH 7.5, 1 mM DTT, 100 ug/ml BSA, 5 mM MgCl2, 130 mM KCl, 30 C, 10 min; native PAGE in TAE (6.5% STR and E3, 7% Esc2); details: protein: recombinant;recombinant;recombinant; tags: Flag;V5;GST; copies: 1;1;1; four-way Holliday junction of 4 strands
T5 sequence (P35187 whole entry, chain 1 of 3): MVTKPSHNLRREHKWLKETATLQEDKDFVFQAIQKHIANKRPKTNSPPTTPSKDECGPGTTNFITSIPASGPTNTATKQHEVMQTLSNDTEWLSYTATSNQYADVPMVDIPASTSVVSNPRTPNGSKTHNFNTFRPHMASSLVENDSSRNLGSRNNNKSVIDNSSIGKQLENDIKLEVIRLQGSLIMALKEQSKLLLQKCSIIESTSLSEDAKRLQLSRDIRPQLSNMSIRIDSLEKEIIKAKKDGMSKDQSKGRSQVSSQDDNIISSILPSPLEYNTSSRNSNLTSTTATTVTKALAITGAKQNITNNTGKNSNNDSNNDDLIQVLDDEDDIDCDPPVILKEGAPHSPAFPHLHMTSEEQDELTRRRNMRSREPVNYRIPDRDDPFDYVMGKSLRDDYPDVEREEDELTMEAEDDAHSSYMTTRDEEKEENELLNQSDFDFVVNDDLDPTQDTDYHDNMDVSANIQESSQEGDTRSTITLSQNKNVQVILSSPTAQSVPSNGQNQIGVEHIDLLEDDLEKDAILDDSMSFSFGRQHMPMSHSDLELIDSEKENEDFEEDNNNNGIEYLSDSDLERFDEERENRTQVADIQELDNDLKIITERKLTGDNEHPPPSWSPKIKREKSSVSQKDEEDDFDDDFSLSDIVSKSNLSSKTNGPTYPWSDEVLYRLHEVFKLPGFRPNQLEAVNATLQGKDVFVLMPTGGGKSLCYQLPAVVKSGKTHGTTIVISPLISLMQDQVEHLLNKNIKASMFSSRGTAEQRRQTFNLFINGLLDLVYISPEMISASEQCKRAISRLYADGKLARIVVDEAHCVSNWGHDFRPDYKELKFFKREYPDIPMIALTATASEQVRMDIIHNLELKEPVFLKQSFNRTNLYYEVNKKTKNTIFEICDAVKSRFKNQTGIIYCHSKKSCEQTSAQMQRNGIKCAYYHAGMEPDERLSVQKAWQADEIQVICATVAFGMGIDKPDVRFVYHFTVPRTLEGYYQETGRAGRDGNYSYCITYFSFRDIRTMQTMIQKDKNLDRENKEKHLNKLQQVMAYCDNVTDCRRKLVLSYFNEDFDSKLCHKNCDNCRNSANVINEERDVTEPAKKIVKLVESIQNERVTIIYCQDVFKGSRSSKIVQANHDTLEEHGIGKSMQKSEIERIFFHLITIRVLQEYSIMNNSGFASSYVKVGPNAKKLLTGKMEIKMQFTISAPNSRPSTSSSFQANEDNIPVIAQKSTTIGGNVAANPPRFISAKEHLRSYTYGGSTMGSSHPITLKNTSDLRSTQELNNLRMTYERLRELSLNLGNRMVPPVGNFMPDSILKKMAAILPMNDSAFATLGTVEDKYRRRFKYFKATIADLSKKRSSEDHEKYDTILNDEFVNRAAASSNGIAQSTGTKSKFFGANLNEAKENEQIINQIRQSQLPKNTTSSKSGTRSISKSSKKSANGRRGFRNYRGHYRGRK
T5 sequence (P13099 whole entry, chain 2 of 3): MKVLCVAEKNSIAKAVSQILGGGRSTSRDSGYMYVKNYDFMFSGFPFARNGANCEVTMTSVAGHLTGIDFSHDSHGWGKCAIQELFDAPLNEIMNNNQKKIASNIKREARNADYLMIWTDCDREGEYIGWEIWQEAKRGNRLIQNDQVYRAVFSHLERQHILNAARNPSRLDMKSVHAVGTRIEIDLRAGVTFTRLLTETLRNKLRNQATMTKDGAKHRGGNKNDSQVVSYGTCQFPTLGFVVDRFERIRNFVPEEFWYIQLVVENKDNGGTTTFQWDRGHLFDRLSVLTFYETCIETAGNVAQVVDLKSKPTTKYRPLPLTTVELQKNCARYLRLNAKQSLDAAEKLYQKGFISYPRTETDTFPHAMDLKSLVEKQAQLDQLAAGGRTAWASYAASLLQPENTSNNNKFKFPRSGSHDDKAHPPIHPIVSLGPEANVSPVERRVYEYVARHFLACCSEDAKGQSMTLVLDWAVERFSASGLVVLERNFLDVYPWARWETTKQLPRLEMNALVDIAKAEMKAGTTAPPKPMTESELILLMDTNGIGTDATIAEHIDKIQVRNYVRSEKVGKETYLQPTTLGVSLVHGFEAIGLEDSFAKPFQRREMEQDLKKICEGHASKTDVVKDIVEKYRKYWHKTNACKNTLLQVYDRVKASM
T5 sequence (Q02685 whole entry, chain 3 of 3): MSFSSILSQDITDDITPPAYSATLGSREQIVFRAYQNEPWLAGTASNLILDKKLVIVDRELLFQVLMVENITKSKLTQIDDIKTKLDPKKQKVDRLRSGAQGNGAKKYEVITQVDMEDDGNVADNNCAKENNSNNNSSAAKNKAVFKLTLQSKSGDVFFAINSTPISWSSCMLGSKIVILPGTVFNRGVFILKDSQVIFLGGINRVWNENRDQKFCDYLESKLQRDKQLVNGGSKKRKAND

[6] = target: T5, Sgs1;Top3;Rmi1; assay: EMSA; 5-40 nM STR, 5 nM DNA; similar to HJ; 35 mM Tris-HCl pH 7.5, 1 mM DTT, 100 ug/ml BSA, 5 mM MgCl2, 130 mM KCl, 30 C, 10 min; native PAGE in TAE (6.5% STR and E3, 7% Esc2); details: protein: recombinant;recombinant;recombinant; tags: Flag;V5;GST; copies: 1;1;1; blunt
[7] = target: T6, GST-Esc2-5E (budding yeast, UniProt Q06340 1-456, K179E | K182E | K183E | K197E | R198E); assay: pull-down; GST or GST-tagged Esc2 or variants (2.2 μM) incubated with 3.6 μM Ubc9 in T buffer (25 mM Tris-Cl pH 7.4, 10% glycerol, 0.5 mM EDTA, 0.01% Igepal, 1 mM DTT) with 80 mM KCl, 30 min at 4 °C; captured on Glutathione Sepharose 4B; SDS-PAGE, Coomassie blue stain; details: both partners purified
T6 construct: Esc2 of budding yeast with five basic residues of the midregion (MR) replaced by glutamic acid; The methods describe a pET24a construct; source: expressed and purified by published procedures
T6 sequence (looked up): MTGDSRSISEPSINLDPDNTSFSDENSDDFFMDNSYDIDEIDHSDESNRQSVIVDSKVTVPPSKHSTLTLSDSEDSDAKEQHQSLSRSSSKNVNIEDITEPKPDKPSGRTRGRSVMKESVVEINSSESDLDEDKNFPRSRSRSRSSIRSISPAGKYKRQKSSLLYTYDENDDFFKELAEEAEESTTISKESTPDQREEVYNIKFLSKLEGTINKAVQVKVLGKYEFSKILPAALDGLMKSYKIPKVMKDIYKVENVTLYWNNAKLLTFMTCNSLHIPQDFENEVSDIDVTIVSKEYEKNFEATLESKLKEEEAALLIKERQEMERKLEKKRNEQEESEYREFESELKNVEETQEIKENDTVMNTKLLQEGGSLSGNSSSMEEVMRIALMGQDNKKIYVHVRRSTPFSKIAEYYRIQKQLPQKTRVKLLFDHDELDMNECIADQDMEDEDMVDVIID

[8] = target: T7, GST-Esc2-MRΔ (budding yeast, UniProt Q06340 1-456, truncating residues 154 to 198); assay: as above; details: both partners purified
T7 construct: Esc2 of budding yeast lacking the midregion (MR), residues 154 to 198; The methods describe a pET24a construct; source: expressed and purified by published procedures
T7 sequence (looked up): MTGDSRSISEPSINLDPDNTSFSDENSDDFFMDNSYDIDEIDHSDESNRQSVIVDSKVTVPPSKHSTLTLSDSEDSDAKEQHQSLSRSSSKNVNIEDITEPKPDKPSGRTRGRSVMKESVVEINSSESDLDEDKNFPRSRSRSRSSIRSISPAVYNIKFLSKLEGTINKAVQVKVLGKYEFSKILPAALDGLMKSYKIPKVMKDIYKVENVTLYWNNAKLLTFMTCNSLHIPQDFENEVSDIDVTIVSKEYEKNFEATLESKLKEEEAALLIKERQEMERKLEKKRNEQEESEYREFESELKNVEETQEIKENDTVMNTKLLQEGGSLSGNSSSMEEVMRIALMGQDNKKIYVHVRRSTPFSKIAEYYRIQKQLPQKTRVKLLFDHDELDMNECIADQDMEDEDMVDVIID

[9] = four-way Holliday junction of 4 strands

B1: HJ-DNA (H3/H5/H7/H8) (structured_DNA)
DNA 1: TTGATAAGAGGTCATTTGAATTCATGGCTTAGAGCTTAATTGCTGAATCTGGTGCTGGGATCCAACATGTTTTAAATATG
DNA 2: CATATTTAAAACATGTTGGATCCCAGCACCAGATTCAGCATACGTTACCGATCGTACGTTCGATGCTGGCTACTGCTAGC
DNA 3: GCTAGCAGTAGCCAGCATCGAACGTACGATCGGTAACGTAGTCGATTATCGAGATCAAGCTAGCATAGCCATAGCGCGAC
DNA 4: GTCGCGCTATGGCTATGCTAGCTTGATCTCGATAATCGACATTAAGCTCTAAGCCATGAATTCAAATGACCTCTTATCAA
binding result [1]: binds | binding result [2]: binds | binding result [3, 9]: no binding | binding result [4, 9]: no binding | binding result [5]: binds

B2: dsDNA (H3/H4) (dsDNA)
DNA 1: TTGATAAGAGGTCATTTGAATTCATGGCTTAGAGCTTAATTGCTGAATCTGGTGCTGGGATCCAACATGTTTTAAATATG
DNA 2: CATATTTAAAACATGTTGGATCCCAGCACCAGATTCAGCAATTAAGCTCTAAGCCATGAATTCAAATGACCTCTTATCAA
binding result [6]: binds | binding result ([3]; blunt): no binding | binding result ([4]; blunt): no binding

binding result [7]: binds | binding result [8]: binds
B3: Ubc9 (SUMO E2) (enzyme, budding yeast, UniProt P50623 1-157, looked up)
chain: MSSLCLQRLQEERKKWRKDHPFGFYAKPVKKADGSMDLQKWEAGIPGKEGTNWAGGVYPITVEYPNEYPSKPPKVKFPAGFYHPNVYPSGTICLSILNEDQDWRPAITLKQIVLGVQDLLDSPNPNSPAQEPAWRSFSRNKAEYDKKVLLQAKQYSK
notes: Ubc9, the SUMO E2 enzyme of budding yeast; source: E. coli, purified (previously published procedures)
